Experimental data: US20260167713A1 (UCB, published 2026)
Positions count from the first letter of the chain named.

What was measured:
[1] = molecular target: endogenous beta-catenin (HEK293 cells) (human) (UniProt P35222); experiment: cell-based or functional assay
[2] = molecular target: T1, recombinant full-length human beta-catenin (human, UniProt P35222 2-781, biotinylated in the ELISA and SPR assays (sites not given); not biotinylated on the Western blots); experiment: ELISA on captured biotinylated beta-catenin
T1 construct: Tags are not described; also called β-catenin; biotinylated beta-catenin
T1 sequence: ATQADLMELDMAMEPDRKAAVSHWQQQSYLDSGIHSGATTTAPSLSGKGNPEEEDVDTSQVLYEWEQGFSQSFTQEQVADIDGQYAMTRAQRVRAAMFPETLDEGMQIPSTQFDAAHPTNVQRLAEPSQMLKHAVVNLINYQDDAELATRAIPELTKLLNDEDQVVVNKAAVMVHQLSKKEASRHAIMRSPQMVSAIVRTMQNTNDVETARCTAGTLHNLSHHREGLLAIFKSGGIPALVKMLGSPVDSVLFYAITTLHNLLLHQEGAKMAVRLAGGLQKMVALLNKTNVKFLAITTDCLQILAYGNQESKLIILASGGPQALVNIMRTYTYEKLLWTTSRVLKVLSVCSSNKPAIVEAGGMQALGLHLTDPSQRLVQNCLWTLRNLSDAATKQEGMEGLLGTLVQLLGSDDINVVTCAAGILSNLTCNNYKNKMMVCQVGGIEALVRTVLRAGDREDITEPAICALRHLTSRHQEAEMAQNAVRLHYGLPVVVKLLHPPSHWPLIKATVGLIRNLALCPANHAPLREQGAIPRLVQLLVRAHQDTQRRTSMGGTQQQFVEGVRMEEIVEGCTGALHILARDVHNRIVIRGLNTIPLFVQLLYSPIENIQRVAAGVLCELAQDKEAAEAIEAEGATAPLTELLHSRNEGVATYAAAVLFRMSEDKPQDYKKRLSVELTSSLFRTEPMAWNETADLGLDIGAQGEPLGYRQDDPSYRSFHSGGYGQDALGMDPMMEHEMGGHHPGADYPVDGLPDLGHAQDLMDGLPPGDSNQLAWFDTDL

[3] = molecular target: T1, recombinant full-length human …; experiment: SPR (Biacore T100), biotinylated beta-catenin captured on streptavidin, VHH-scFc in solution
Experimental: SPR-Affinity measurements: Affinity measurements were performed using a Biacore™T100. Streptavidin was immobilised onto the carboxymethylated dextran coated gold surface of a CM5 sensor chip using amine coupling chemistry, as per manufacture's instructions. The concentrations of streptavidin used in flow cells 1˜4 respectively were 0 μg/mL, 5 μg/mL, 15 μg/mL, 45 μg/mL in 10 mM NaOAc pH5. Biotinylated beta-catenin was then captured on flow cells 2-4 whilst flow cell 1 was the control reference cell. Samples of VHH-scFc at 1 in 2, 1 in 5, 1 in 10, 1 in 20 and 1 in 40 dilutions in HBS-EP were passed over all flow cells for 5 minutes at 30 μL/minute. Buffer blanks were run between every sample set and control transfection supernatant samples were included in each run. Between each sample the chip was regenerated by the addition of 30 μL of 2M guanidine hydrochloride followed by 30 μL of 40 mM HCl. Affinity constants were determined by the fitting of resulting data using BiaEvalution software with a Langmuir 1:1 association method, associations were rejected if the Chi2 value was greater than 1; if the residual data points were not randomly distributed or if the residuals were greater than +/−2 RU. The association data were plotted for the most dilute samples which still gave a RU capture response of at least 40RU. A minimum of four different combinations of dilutions and different beta-catenin coated flow cells were used to calculate association ‘on-rate’ (ka) or dissociation data ‘off-rate’ (kd), and used to calculate KD=kd/ka.

[4] = molecular target: T1, recombinant full-length human …; experiment: Western blot of reduced recombinant beta-catenin on PVDF, probed with IBV1.CDRAAA-scFc transient supernatant at 16 nM, detected with anti-mouse Fc HRP
Experimental: FIG. 5: Reducing anti-beta-catenin Western blots probed by the intrabodies. Gel A:) IBV1-scFc (23 nM), Gel B: IBV2-scFc (110 nM), Gel C: IBV3-scFc (85 nM) and Gel D: IBV1.CDRAAA-scFc (16 nM) transient supernatants. Any binding was detected with t anti-mouse Fc HRP antibody. In each gel, Lane 1) 15 ng beta-catenin, Lane 2) 7.5 ng beta-catenin, Lane 3) 3.75 ng beta-catenin.
The presence of beta-catenin was successfully detected by all three parent VHHs and not by the control mutant IBV1.CDRAAA.

[5] = molecular target: T1, recombinant full-length human …; experiment: ELISA: biotinylated beta-catenin captured on streptavidin plates, VHH-scFc in half-log dilutions from 32 nM, anti-mouse Fc HRP, delta OD 630/490 nm [lower panel]
Experimental: FIG. 6: beta-catenin binding ELISA results for parent VHHs and CDR3 mutants. […] The plates were read at 630 and 490 nm and ΔOD recorded. The negative control is a ‘no DNA’ control transfection culture supernatant.
Beta-catenin binding ELISA: ELISA plates were coated with streptavidin ([…]). Biotinylated beta-catenin (1 mg/mL) was added in PBS, for 30 minutes. Blocked samples were added (phage samples or transient VHHscFc samples). After an hour, bound samples were detected using a suitable antibody at 1 in 5,000 dilution in PBS (containing 3% BSA). Detection antibodies were goat anti-M13-HRP (GE Healthcare) or goat anti-mouse Fc HRP (Jackson ImmunoResearch).
The binding of the parent intrabodies and CDR3 mutants to recombinant β-catenin was also tested by ELISA. […] IBV1.CDRAAA and IBS.CDRAAA also appeared to be suitable CDR3 mutant controls for their respective parent except for their lower expression levels within the bioassay. This is not uncommon in conventional antibody expression and single point mutations in antibody CDRs leading to over a 100-fold reduction in expression have been previously reported.

B1: intrabody V1 (VHH expressed intracellularly) (VHH, not shown: small tags and cut ends)
VHH: QVQLVQSGGGLVQPGGSLRLSCAASGSISSNNVMGWYRQGPGKQREFVASITDSDLANYAASVKGRFTISRDNAKNTVNLQMNSLRPEDTDVYYCRLTMMTYPPTISWGQGTQVTVSS
- firefly luciferase activity signal, PPSP-stimulated HEK293 TCF/LEF reporter bioassay (% of control VHH signal) [1]: < 25

B2: intrabody V2 (VHH expressed intracellularly) (VHH, not shown: small tags and cut ends)
VHH: B1 VHH with T105I
- firefly luciferase activity signal, PPSP-stimulated HEK293 TCF/LEF reporter bioassay (% of control VHH signal) [1]: < 25

B3: IBV1-scFc (Fc fusion, not shown: a dimerising Fc or GST; large carriers; small tags and cut ends)
VHH: B1 VHH
notes: Single chain mouse IgG Fc construct, used as transient HEK293 supernatant; also called VH-V1; VHH-scFc of V1
- Kd [2]: < 10 nM
- Kd [3]: 6.49 nM
- koff [3]: 0.000163 s⁻¹
- kon [3]: 25100 M⁻¹ s⁻¹

B4: intrabody V3 (VHH expressed intracellularly) (VHH, not shown: small tags and cut ends)
VHH: B1 VHH with Q6E, S27T, I51V, D91G, M99I
- firefly luciferase activity signal, PPSP-stimulated HEK293 TCF/LEF reporter bioassay (% of control VHH signal) [1]: < 25

B5: IBV3-scFc (Fc fusion, not shown: a dimerising Fc or GST; large carriers; small tags and cut ends)
VHH: B1 VHH with Q6E, S27T, I51V, D91G, M99I
notes: Single chain mouse IgG Fc construct, used as transient HEK293 supernatant; also called VH-V3
- Kd [2]: < 10 nM
- Kd [3]: 4.38 nM
- koff [3]: 0.000169 s⁻¹
- kon [3]: 38500 M⁻¹ s⁻¹

B6: IBV1.CDRAAA-scFc (Fc fusion, not shown: a dimerising Fc or GST; small tags and cut ends)
VHH: B1 VHH with Y102A, P103A, P104A
notes: CDR3 mutant control of V1 in the VHH-scFc format; also called VH-V1.CDRAAA
- binding result [4]: no binding (tested: 16 nM)

B7: IBV2-scFc (Fc fusion, not shown: a dimerising Fc or GST; large carriers; small tags and cut ends)
VHH: B1 VHH with T105I
notes: Single chain mouse IgG Fc construct, used as transient HEK293 supernatant; also called VH-V2
- Kd [2]: < 10 nM
- Kd [3]: 4.47 nM
- koff [3]: 0.000165 s⁻¹
- kon [3]: 36900 M⁻¹ s⁻¹

B8: intrabody O (VHH expressed intracellularly) (VHH, not shown: small tags and cut ends)
VHH: QVQLVQSGGGLVQAGDSLRLACAASEGTFRTNVMGWFRQAPGKEREFVAAISWSGGITHYSNSVKGRFAISRDNAKNTVYLQMNSLKPEDTAVYYCAADPSTTPWNLRVRVNEYEYWGQGTQVTVSS
- firefly luciferase activity signal, PPSP-stimulated HEK293 TCF/LEF reporter bioassay (% of control VHH signal) [1]: < 25
- inhibition of beta-catenin co-transcriptional activity, HEK293 bioassay stimulated with LiCl2, against IBO.CDRAAA (1) [1]: 65%
- inhibition of beta-catenin co-transcriptional activity, HEK293 bioassay stimulated with Wnt3a-conditioned media, against IBO.CDRAAA (1) [1]: 66%
- percentage inhibition of firefly luciferase production in the bioassay, IBO against IBO.CDRAAA (1) [1]: 83%

B9: IBO-scFc (Fc fusion, not shown: a dimerising Fc or GST; large carriers; small tags and cut ends)
VHH: B8 VHH
notes: Single chain mouse IgG Fc construct; It is placed under this molecule; also called VH-O; biotinylated-'O'
- Kd [2]: < 10 nM
- Kd [3]: 3.65 nM
- koff [3]: 0.00026 s⁻¹
- kon [3]: 71100 M⁻¹ s⁻¹

B10: IBO.CDRAAA (1)-scFc (Fc fusion, not shown: a dimerising Fc or GST; small tags and cut ends)
VHH: B8 VHH with P104A, W105A, N106A
notes: CDR3 mutant control of O in the VHH-scFc format; also called VH-O.CDRAAA(1)
- binding result [5]: no binding (tested: 32 nM)

B11: IBO.CDRAAA (2)-scFc (Fc fusion, not shown: a dimerising Fc or GST; small tags and cut ends)
VHH: B8 VHH with R108A, V109A, R110A
notes: CDR3 mutant of O in the VHH-scFc format; also called VH-O.CDRAAA(2)
- binding result [5]: binds

B12: intrabody S (VHH expressed intracellularly) (VHH, not shown: small tags and cut ends)
VHH: QVQLVESGGGLVQAGGSLRLSCAASGVSFSRTSLGWFRQAPGKEREFVSVISWIGGTTYYADSLKGRFTISRDNAKSTVYLQMNSLKPEDTALYYCAISNGVLPRTEGAFASWGQGTQVTVSS
- firefly luciferase activity signal, PPSP-stimulated HEK293 TCF/LEF reporter bioassay (% of control VHH signal) [1]: < 25

B13: IBS-scFc (Fc fusion, not shown: a dimerising Fc or GST; large carriers; small tags and cut ends)
VHH: B12 VHH
notes: Single chain mouse IgG Fc construct, used as transient HEK293 supernatant; also called VH-S
- Kd [2]: < 10 nM
- Kd [3]: 3.78 nM
- koff [3]: 0.000248 s⁻¹
- kon [3]: 65600 M⁻¹ s⁻¹

B14: IBS.CDRAAA-scFc (Fc fusion, not shown: a dimerising Fc or GST; small tags and cut ends)
VHH: B12 VHH with E6Q, R105A, E107A, F110A
notes: CDR3 mutant control of S in the VHH-scFc format; also called VH-S.CDRAAA
- binding result [5]: no binding (tested: 32 nM)
